According to the DeepSol protein solubility set:

Experiment: soluble on expression in E. coli; label from the status in PepcDB or PDB records

Sequence	soluble on expression in E. coli
MEERDSETGWRGSREGWLQAAYEALIEGGVESVKIMTLAARLKLSRTSFYWFFKDRADVLDALRSQWAGTTTAPLVAASAEYAESRAEAMLNVLACFLSGRFDARFEFAARSWGLQDPAMAAAVEAADAERLAALTDMLARWGHDPQEADVRARTVYLVQIGYISMRAEETLETRLARIPNYVEIYTGVRPEPREMARFRARLGLAV	not soluble
MEERGDSEPTPGCSGLGPGGVRGFGDGGGAPSWAPEDAWMGTHPKYLEMMELDIGDATQVYVAFLVYLDLMESKSWHEVNCVGLPELQLICLVGTEIEGEGLQTVVPTPITASLSHNRIREILKASRKLQGDPDLPMSFTLAIVESDSTIVYYKLTDGFMLPDPQNISLRR	soluble
MEERILFSQKTTIFVPVDNDSRIKPMSKDSLCAQHTDCSGCPKAMESTLIHRNLLRGQHIPKDKCTQNCMLFMIEGELLINSDEHPGTTLHEKQFILQAIGSKYEILALTDVSYILFWFNELPLLCENRYREIIDQAEGPLTYTPMVMNPRLFYLINDVAAYLDESTPACGKYIDLKCQEMVYMITNYYPLPQLRAFFYPISTYTESFQYFVMQNYSKAKNVEEFAHLGGYNTTTFRRLFRNLYGVPVYEWMLEKKREGILEDLQHSNMRITEICNRYGFDSLSHLAHFCKDSFGDTPRALRKKAANGEKIGKITD	not soluble
MEERTLVILGATGSIGTQTLDVLKKVKGIRLIGISFHSNLELAFKIVKEFNVKNVAITGDVEFEDSSINVWKGSHSIEEMLEALKPDITMVAVSGFSGLRAVLASLEHSKRVCLANKESLVCGGFLVKKKLKEKGTELIPVDSEHSAIFQVMEPEVEKVVLTASGGALRDWKISKIDRARPEDVLKHPVWNMGARITVDSATMVNKAFEVLEAMELFELPFEKIEVKIHREGLVHGAVVLPDGNVKMVVSPPDMRIPISYALFYPRRVALEPFFLRTISLSFEDPDPEKYPAFFLLKEIKDSYALRTAFNAADEVAVEAFLKGRIRFGGIHRVIEKTLEEFQGYPQPRTLDDVERIHFEAIKKAERVTEWLSSTSY	soluble
MEEVTIKANLIFANGSTQTAEFQGTFEQATSEAYAYADTLKQDNGEWTVDVADQGYTLNIQFAG	soluble
MEFIGDTRIVIINPLGAKKICRLTFEQIKVIYQEVKTHFENYRIIFTGLPQDLLTIPILEIETLPFDEFIYTVALTKYSDFVISVDTALVHIAAAYHKPTLAFYPNSRTPEYPSHLIWSPNHHKSIQIVSPTYTVKDIDTETLTNSVKRLEHHHHHH	not soluble
MEFKVTLTTEEIVRGLKHYRRIAKQDVLRAPETPNPEVFRRHAEARREVYAKLAEVAEREGPEAAVAYALELYRSLPFVTGTPEDQYPEIKGQENALENFFLMIGLDPKVRREARKARKPLQ	soluble
MEFTLLGWPEDGHRLRLDYKQFAYAGKFVMTSTGKAVIGDDGVVAAAAFDADRTDPDTLCVRYITVRQDRQGDRLGARLLRFVRERATERGFEHVSIGVNNPFSYQAAYRAGFCFSGAESGMAELDLVWPGDRSTERYQAGLDLFRERDLSPDEESFLAAKADADPPTVLNEWAEQPSARTD	not soluble
MEFVKGDQVEVCSKEDGFLGSYFGATVVSKTPEGSYYKIKYKNLVSDTDQSKRLVEVISADELRPMPPKSLHVLIRCGDKVDAFDKDGWWVGEVTAVRRNIYSVYFSTTDEELEYPLYSLRKHHEWVNGSWVRQ	soluble
MEGDVLSGFGDRHNMDGKLLQSFQKSFVDVQDILDQNRLLINEINQNHESKQPDNLGRNVGLIKELNNNIRRVASLYGDLSHSFARSVDASSEGESSGTLKSDGKANQKRFRSGDGSLVPATDEEMLEVKNLLEKNEQDMPVLPDPIQTEEYIPDEGSPSQFLQLENFEGKTYCIHAKTDRISLGLHDKGIYWVTCNVGAINFTPPLKLLQSKEELMNGSQMLFVLPDTKFQISTELSGNVELVPSKVLLQEPILFSSNGCSINQSTDVLNATASPKEPALSTAASKPDFSRVPGEISLANLSIKELQETFRATFGRETTSKDKRWLKRRIKMGLINSCVVPTTTLTINDSKLIGGDQDAIDAFSKGTVDEETATESIDTPASPDGIKGHSNDFGHSPVETFVDHYSGNEDFEGEDGSAKRVRKPTRRYIEETNEKQQIDGSMIPSKDPSSIQAVSSEGRVVVTRMVSLAGSRIQVPYVSHVRRSRPRENIMALGEFRSKSWEVKAAPEEGNLNLSPPQLSNDVNRVPGVKSASRCVQKESDKDHLKPIFTDVDQEMMEPELLDSSGDSSDDNFVDAPITQSASGRKLHRAWTISEVEKLVEGVSKYGVGKWTEIKKLSFSPYTHRTTVDLKDKWRNLQKASSSNRMEGGLKKHGSMAIPTHIMLQVRELAQKQSPISRVVSKARVVKRSRSRNGFL	soluble
MEGQSGRCKIVVVGDAECGKTALLQVFAKDAYPGSYVPTVFENYTASFEIDKRRIELNMWDTSGSSYYDNVRPLAYPDSDAVLICFDISRPETLDSVLKKWQGETQEFCPNAKVVLVGCKLDMRTDLATLRELSKQRLIPVTHEQGTVLAKQVGAVSYVECSSRSSERSVRDVFHVATVASLGRGHRQLRRTDSRRGMQRSAQLSGRPDRGNEGEIHKDRAKSCNLM	soluble
MEHICGTSRIAGFRFSLYPMTDDFISVIKSALKKTDTSKVWTKTDHISTVLRGSIDHVFDAAKAIYLHAANSEQHIVMNGTFSIGCPGDTQGDTYLSKGDKRVNEDAVRGLKAEAPCQFALYPMNEPDYMGLIMEAVDIAKAQGTFVQGVHYASELDGDAHDVFSTLEAVFRMAEQQTNHITMTVNLSANSPSRKNRKQG	soluble
MEHPEGEDPTLLPPALAARALGVSPATLRRYAALWERLVGPLPRDPRGGRLWPKEALARLRAAREAHLREGLPLEEALARVQGDFPALALPSEGEALALLRALAERLERVEGELRALREENARLREALKALEPPRRRPWWRFWGH	soluble
MEIFPAIDLKEGRCVRLYQGEFSKETVMNEDPVAQAIIFEKFGAKRLHIVDLDGAVAGESLNLSVIERICKAVRIPVQVGGGIRSLVAVEKLFSVGVDKVILGTAALYDKTFLEEAVLLYKEKIIVGIDAKNGFVATRGWLDVSEISYIDLAKQMEKIGVQTIVFTDISKDGTLAGPNIEQLELLQKSVAIRLIASGGVASIQDVKKLNDMNIYGVIIGKALYEKTIDLEEVVEVTKLC	not soluble
MEIGTVTSQEEKLAYEKSIEMAGNYANQFDAQMEANQAIARTLACTMAEYGSQDREEAMSIIKRILNENPQLIGVYLGYEPDAFDGRDKNYINAPGHDSTGRFVPYCNKINGPVIIEPLVHYDSSDYYQLPKTTGKDTLTEPYFYEGIFMVSYDSPIFKNGEFAGIAGVDVPLEYVDDVASSIRTFDTGYAFMVSNTGIFLSHPTQKNWIGEKSLSDFDVEEIKNAASDIREGIGGHVEIKDPITGKTVIMFYEPVKTGDFSFVLVVPKEEMLAGVKDLRDRLLEHHHHHH	soluble
MEIKEFSACNLESLRKLYLDSRRDSFPWLKADSFRIEDFDRDSQGERIWLSEVLGNVVGFISIWEPDNFIHHLYVATEYQGQGVGSMLLNGAKMKYGNLSLKCMVQNQKALNFYSSQGFEIVSQVDDELGGYYYMSFSAQT	not soluble
MEIKGESMQKSKFRRICVFCGSSQGKKSSYQDAAVDLGNELVSRNIDLVYGGGSIGLMGLVSQAVHDGGRHVIGIIPKTLMPRELTGETVGEVRAVADMHQRKAEMAKHSDAFIALPGGYGTLEELLEVITWAQLGIHDKPVGLLNVDGYYNSLLSFIDKAVEEGFISPTAREIIVSAPTAKELVKKLEEYAPCHERVATKLCWEMERIGYSSEE	soluble
MEITPKRYWRRWRGYEKLDGSSETTSGRRKGKRVKMDPTRKKRFWRIKIVPKLRILKTASPKKFLVWLRDSYVKMMMRLANSRVVGSSGYGGSGFGSGQMKEYDEKMLVEIYKSILMVQAQGNLVHRDTPNNNLKLPSEPAVVSVVSSVVTC	not soluble
MEKETLFIAFSTQKGGAGKTTLTVLVASYLHYVKGMNVAVVDCDYPQHSIAEMRKRDLKTVMEDEHYKLMAYRQLQRIRKKAYPVAESTAEDAVTKADELLEKMPETDIVFFDLPGTVNSTGVLNTLVNMDYVFSPIAADRVVMESTLRFASRLNDTLIATGKTNIKGLYLLWNMVDGREKSELYKVYEQVIGELGLKVLKTFLPDSKRFRRELTGGHRALFRSTLFPADGTLVKGSNLKEITEELLSIIRK	not soluble
MEKIIVRGGKRLNGTVRVEGAKNAVLPIIAAALLASDGKNVLSEVPVLSDVYTINEVLRHLNAEVVFENNQVTIDASKELNIEAPFEYVRKMRASVQVMGPLLARNGRARIALPGGCAIGSRPIDQHLKGFEAMGAKVQVGNGFVEAYVEGELKGAKIYLDFPSVGATENIMSAATLAKGTTILENAAKEPEIVDLANFLNAMGAKVRGAGTGTIRIEGVDKLYGANHSIIPDRIEAGTFMVAAAITGGDILIENAVPEHLRSITAKMEEMGVKIIEENEGVRVIGPDKLKAVDIKTMPHPGFPTDMQSQMMALLLQADGTSMITETVFENRFMHVEEFRRMNADIKIEGRSVIMNGPNSLQGAEVGATDLRAAAALILAGLVSEGYTRVTELKHLDRGYVDFHKKLAALGATIERVNEKVEEVKEQEVSDLHA	not soluble
MEKIKNTCKIWEYIYTISRDRLYQKIPKEEFLRLSTSDKEYLEAIKNLNNPKISELARDMGYTKTAVTTMVQKLEKNGYLKKIKSKEDKREINVELTDKGRYIFELKEEVYEYTIKRIKEVLTPQELGAFKAILEKIAKEFDQELGKIYEKNENIDKSDGPPII	not soluble
MEKILIFGHQNPDTDTICSAIAYADLKNKLGFNAEPVRLGQVNGETQYALDYFKQESPRLVETAANEVNGVILVDHNERQQSIKDIEEVQVLEVIDHHRIANFETAEPLYYRAEPVGCTATILNKMYKENNVKIEKEIAGLMLSAIISDSLLFKSPTCTDQDVAAAKELAEIAGVDAEEYGLNMLKAGADLSKKTVEELISLDAKEFTLGSKKVEIAQVNTVDIEDVKKRQAELEAVISKVVAEKNLDLFLLVITDILENDSLALAIGNEAAKVEKAFNVTLENNTALLKGVVSRKKQVVPVLTDAMAE	soluble
MEKKIGKLSIRVLLNTHRRNDCEIYPLIIRVVYHRRKSEYSLGWKIHTSNFSADRERVVYSSTGNLKRKDLGLINDAISQERERLLKIFAFLQQNMPGFSLSQLMDKYRMERNLRYVDAFIVREIERLRQEGRSGTAGLYLSGLYSLRRFLRGQKITFRELTYCFLTDYIHFLRMRGISENTVNMYIRNLRAVYNKAQKQGINMGCESPFRELKLQTQETAKRALCKHDIARIVSVDLSSEPLLDRARDLFMFSFYARGMPFVDIVFLKHDSIINGIIYYERNKTGQRMQVRVIPPLAALIEKYRSSYPYVLPYITSFSDRTSYMQYRYALGNVNRLLKRLGRRLHLPLVLTTYVARHSWATIAKEEGFSIASISEGLGHTSEATTQIYLQSFNSEVIDKINEQVVASIGRHI	not soluble
MEKLIAIQQNTIKQETVQTMSSREIAELCGKRHGHVMRDIRKLFSELKIDLSNFAGLYKDSTGRTLPCYHLPKREALIVILGYNTVLRAKIIDYWKKLEEQAANPQIDFSSPEIRAAIMMHLKNKIKQTA	soluble
MEKLRVGIVFGGKSAEHEVSLQSAKNIVDAIDKSRFDVVLLGIDKQGQWHVSDASNYLLNADDPAHIALRPSATSLAQVPGKHEHQLIDAQNGQPLPTVDVIFPIVHGTLGEDGSLQGMLRVANLPFVGSDVLASAACMDKDVTKRLLRDAGLNIAPFITLTRANRHNISFAEVESKLGLPLFVKPANQGSSVGVSKVTSEEQYAIAVDLAFEFDHKVIVEQGIKGREIECAVLGNDNPQASTCGEIVLTSDFYAYDTKYIDEDGAKVVVPAAIAPEINDKIRAIAVQAYQTLGCAGMARVDVFLTPENEVVINEINTLPGFTNISMYPKLWQASGLGYTDLITRLIELALERHAADNALKTTM	soluble
